Sequences and labels used below:
T1: SNTG1, Q9NSN8
T1 sequence (Q9NSN8 52-150, limits assumed, looked up): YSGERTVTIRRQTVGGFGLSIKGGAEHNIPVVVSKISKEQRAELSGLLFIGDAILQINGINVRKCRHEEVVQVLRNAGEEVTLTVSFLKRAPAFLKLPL

T2: HTRA3, P83110
T2 sequence (P83110 354-453, limits assumed, looked up): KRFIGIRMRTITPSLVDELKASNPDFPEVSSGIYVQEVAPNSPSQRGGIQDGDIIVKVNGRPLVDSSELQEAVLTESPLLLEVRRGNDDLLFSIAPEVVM

T3: PDZD7_3, Q9H5P4
T3 sequence (Q9H5P4 857-944, limits assumed, looked up): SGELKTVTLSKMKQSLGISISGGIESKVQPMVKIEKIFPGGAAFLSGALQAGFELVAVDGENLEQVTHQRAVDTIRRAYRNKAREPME

T4: CARD11, Q9BXL7
T4 sequence (Q9BXL7 662-765, limits assumed, looked up): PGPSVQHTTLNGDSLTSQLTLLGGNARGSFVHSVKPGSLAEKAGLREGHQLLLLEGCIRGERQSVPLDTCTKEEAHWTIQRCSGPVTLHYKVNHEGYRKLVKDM

T5: APBA2_2, Q99767
T5 sequence (Q99767 654-744, limits assumed, looked up): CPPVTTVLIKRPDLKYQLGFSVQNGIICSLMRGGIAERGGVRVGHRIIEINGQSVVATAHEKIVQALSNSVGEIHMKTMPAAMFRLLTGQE

T6: FRMPD1, Q5SYB0
T6 sequence (Q5SYB0 52-145, limits assumed, looked up): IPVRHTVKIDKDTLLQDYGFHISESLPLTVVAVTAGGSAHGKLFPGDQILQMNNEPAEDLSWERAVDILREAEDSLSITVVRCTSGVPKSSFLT

T7: DFNB31_1, Q9P202
T7 sequence (Q9P202 135-233, limits assumed, looked up): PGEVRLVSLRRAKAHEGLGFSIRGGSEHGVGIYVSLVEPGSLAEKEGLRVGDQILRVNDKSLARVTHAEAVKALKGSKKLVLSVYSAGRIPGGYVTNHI

T8: SIPA1L2, Q9P2F8
T8 sequence (Q9P2F8 945-1036, limits assumed, looked up): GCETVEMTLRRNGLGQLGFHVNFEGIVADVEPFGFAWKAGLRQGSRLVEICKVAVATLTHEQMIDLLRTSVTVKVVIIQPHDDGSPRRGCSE

T9: PARD3B_1, Q8TEW8
T9 sequence (Q8TEW8 196-299, limits assumed, looked up): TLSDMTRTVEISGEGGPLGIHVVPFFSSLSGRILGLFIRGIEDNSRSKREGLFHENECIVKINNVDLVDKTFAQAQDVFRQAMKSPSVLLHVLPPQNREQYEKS

T10: DFNB31_3, Q9P202
T10 sequence (Q9P202 811-907, limits assumed, looked up): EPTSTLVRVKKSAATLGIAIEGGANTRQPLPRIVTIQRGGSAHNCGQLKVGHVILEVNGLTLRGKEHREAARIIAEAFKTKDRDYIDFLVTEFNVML

T11: SNTA1, Q13424
T11 sequence (Q13424 82-180, limits assumed, looked up): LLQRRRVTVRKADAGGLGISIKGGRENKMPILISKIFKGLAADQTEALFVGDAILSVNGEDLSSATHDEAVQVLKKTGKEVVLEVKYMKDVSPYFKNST

T12: ARHGAP21, Q5T5U3
T12 sequence (Q5T5U3 45-169, limits assumed, looked up): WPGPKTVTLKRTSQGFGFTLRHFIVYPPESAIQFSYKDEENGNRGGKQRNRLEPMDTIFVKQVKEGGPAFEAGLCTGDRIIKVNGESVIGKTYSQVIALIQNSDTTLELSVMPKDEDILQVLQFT

T13: TJP3_3, O95049
T13 sequence (O95049 375-456, limits assumed, looked up): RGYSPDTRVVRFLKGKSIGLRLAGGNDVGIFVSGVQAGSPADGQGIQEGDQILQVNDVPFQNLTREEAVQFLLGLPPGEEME

B1: HDAC7, Q8WUI4 (peptide)
chain: LVEEEEPMNL
B2: CACNA1D, Q01668 (peptide)
chain: ADEMICITTL

By pKd is commonly meant the Kd on a negative log10 scale, so that one unit is a factor of ten.

Sequence of NHERF4_2, Q86UT5 (Q86UT5 220-308): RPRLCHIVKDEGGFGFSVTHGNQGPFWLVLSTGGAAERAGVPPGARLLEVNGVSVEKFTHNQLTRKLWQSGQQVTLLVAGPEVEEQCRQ
Sequence of GORASP1, Q9BQQ3 (Q9BQQ3 1-208): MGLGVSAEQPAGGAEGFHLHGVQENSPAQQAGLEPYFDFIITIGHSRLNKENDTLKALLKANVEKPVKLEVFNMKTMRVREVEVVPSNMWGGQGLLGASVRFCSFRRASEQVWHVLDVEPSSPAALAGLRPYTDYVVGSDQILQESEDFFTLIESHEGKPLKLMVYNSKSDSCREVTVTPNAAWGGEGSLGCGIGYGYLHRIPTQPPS
Sequence of PARD3_3, Q8TEW0 (Q8TEW0 582-685): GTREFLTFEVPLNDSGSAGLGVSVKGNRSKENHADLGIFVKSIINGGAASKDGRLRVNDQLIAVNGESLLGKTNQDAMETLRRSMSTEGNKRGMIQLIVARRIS
Sequence of LIMK2, P53671 (P53671 143-248): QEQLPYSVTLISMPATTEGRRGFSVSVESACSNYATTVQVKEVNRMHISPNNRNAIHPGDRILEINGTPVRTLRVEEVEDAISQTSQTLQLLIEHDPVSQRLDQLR

The target in the first assay is T1, SNTG1, Q9NSN8. Briefly: holdup assay. Set-up: key: below the threshold = too weak to quantify, mostly under pKd 3.1 to 4. As to conditions: plain residues with an end cap or a label only (N-terminal biotin on a linker: ado-ado).
On to B1, for which the negative logarithm of the Kd (pKd) entry is on record as “below the threshold”.

As for B2, the negative logarithm of the Kd (pKd) was found to be 4.32.

The target in another assay is TJP2_1, Q9UDY2. Put plainly: holdup assay. Also on record: key: below the threshold = too weak to quantify, mostly under pKd 3.1 to 4. The conditions noted are these: plain residues with an end cap or a label only (N-terminal biotin on a linker: ado-ado).
Sequence of TJP2_1, Q9UDY2 (Q9UDY2 24-128): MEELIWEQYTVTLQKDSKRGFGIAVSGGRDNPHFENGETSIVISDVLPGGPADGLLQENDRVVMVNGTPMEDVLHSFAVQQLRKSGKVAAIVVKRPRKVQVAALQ
Take B1: the pKd result was “below the threshold”.

For B2, the pKd entry is on record as “below the threshold”.

A further assay has as its target PARD3_3, Q8TEW0. Put plainly: holdup assay. Also on record: key: below the threshold = too weak to quantify, mostly under pKd 3.1 to 4. As to conditions: plain residues with an end cap or a label only (N-terminal biotin on a linker: ado-ado).
Take B1: the pKd turned out to be 4.23.

Consider B2, for which the pKd is 4.38.

Another assay has as its target T2, HTRA3, P83110. Briefly: holdup assay. Set-up: key: below the threshold = too weak to quantify, mostly under pKd 3.1 to 4. As to conditions: plain residues with an end cap or a label only (N-terminal biotin on a linker: ado-ado).
Take B1: the pKd entry is “below the threshold”.

Regarding B2, the negative-log Kd (pKd) entry was “below the threshold”.

The next assay addresses T3, PDZD7_3, Q9H5P4. Briefly: holdup assay. The conditions noted are these: plain residues with an end cap or a label only (N-terminal biotin on a linker: ado-ado). Set-up: key: below the threshold = too weak to quantify, mostly under pKd 3.1 to 4.
For B1, the pKd entry is given as “below the threshold”.

As to B2, the negative logarithm of the Kd (pKd) came to 5.57.

The target in another assay is SCRIB_3, Q14160. Put plainly: holdup assay. Set-up: key: below the threshold = too weak to quantify, mostly under pKd 3.1 to 4. The conditions noted are these: plain residues with an end cap or a label only (N-terminal biotin on a linker: ado-ado).
Sequence of SCRIB_3, Q14160 (Q14160 999-1103): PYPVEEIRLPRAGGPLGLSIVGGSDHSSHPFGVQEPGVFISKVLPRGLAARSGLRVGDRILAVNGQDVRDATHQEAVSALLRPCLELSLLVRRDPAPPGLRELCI
As to B1, the negative logarithm of the Kd (pKd) entry is on record as “below the threshold”.

With B2, the pKd is 4.88.

The next assay deals with T4, CARD11, Q9BXL7. Put plainly: holdup assay. Also on record: key: below the threshold = too weak to quantify, mostly under pKd 3.1 to 4. The conditions noted are these: plain residues with an end cap or a label only (N-terminal biotin on a linker: ado-ado).
For the molecule B1, the pKd result is given as “below the threshold”.

For the molecule B2, the pKd result was “below the threshold”.

Another assay addresses GORASP1, Q9BQQ3. Put plainly: holdup assay. Set-up: key: below the threshold = too weak to quantify, mostly under pKd 3.1 to 4. The conditions noted are these: plain residues with an end cap or a label only (N-terminal biotin on a linker: ado-ado).
Regarding B1, the negative logarithm of the Kd (pKd) entry is on record as “below the threshold”.

Regarding B2, the negative logarithm of the Kd (pKd) is 4.

The target in another assay is T5, APBA2_2, Q99767. Briefly: holdup assay. Also on record: key: below the threshold = too weak to quantify, mostly under pKd 3.1 to 4. The conditions noted are these: plain residues with an end cap or a label only (N-terminal biotin on a linker: ado-ado).
B1: the pKd result was “below the threshold”.

In the case of B2, the pKd result is reported as “below the threshold”.

Another assay concerns the target T6, FRMPD1, Q5SYB0. Put plainly: holdup assay. Also on record: key: below the threshold = too weak to quantify, mostly under pKd 3.1 to 4. As to conditions: plain residues with an end cap or a label only (N-terminal biotin on a linker: ado-ado).
B1: the pKd result was “below the threshold”.

Take B2: the negative logarithm of the Kd (pKd) entry is recorded as “below the threshold”.

The target of a further assay is MAGI1_2, Q96QZ7. Put plainly: holdup assay. Also on record: key: below the threshold = too weak to quantify, mostly under pKd 3.1 to 4. As to conditions: plain residues with an end cap or a label only (N-terminal biotin on a linker: ado-ado).
Sequence of MAGI1_2, Q96QZ7 (Q96QZ7 456-580): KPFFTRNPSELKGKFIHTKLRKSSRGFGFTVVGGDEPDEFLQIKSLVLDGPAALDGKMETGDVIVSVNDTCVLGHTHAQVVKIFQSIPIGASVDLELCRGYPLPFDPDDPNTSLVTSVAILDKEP
Consider B1, for which the pKd result is given as “below the threshold”.

Take B2: the negative logarithm of the Kd (pKd) entry is listed as “below the threshold”.

In another assay the target is GRIP2_7, Q9C0E4. Put plainly: holdup assay. Also on record: key: below the threshold = too weak to quantify, mostly under pKd 3.1 to 4. As to conditions: plain residues with an end cap or a label only (N-terminal biotin on a linker: ado-ado).
Sequence of GRIP2_7, Q9C0E4 (Q9C0E4 934-1023): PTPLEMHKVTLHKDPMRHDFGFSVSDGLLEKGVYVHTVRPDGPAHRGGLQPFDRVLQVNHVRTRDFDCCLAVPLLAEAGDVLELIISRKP
For the molecule B1, the pKd result is reported as “below the threshold”.

Regarding B2, the pKd was found to be 3.62.

Another assay addresses NHERF4_2, Q86UT5. Put plainly: holdup assay. Set-up: key: below the threshold = too weak to quantify, mostly under pKd 3.1 to 4. The conditions noted are these: plain residues with an end cap or a label only (N-terminal biotin on a linker: ado-ado).
As to B1, the negative-log Kd (pKd) result was “below the threshold”.

Turning to B2, the negative logarithm of the Kd (pKd) entry was “below the threshold”.

The next assay deals with SCRIB_1, Q14160. Put plainly: holdup assay. Set-up: key: below the threshold = too weak to quantify, mostly under pKd 3.1 to 4. The conditions noted are these: plain residues with an end cap or a label only (N-terminal biotin on a linker: ado-ado).
Sequence of SCRIB_1, Q14160 (Q14160 718-814): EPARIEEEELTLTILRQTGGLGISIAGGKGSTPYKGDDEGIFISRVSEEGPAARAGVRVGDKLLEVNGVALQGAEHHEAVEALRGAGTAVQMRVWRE
Take B1: the negative logarithm of the Kd (pKd) result is “below the threshold”.

In the case of B2, the negative-log Kd (pKd) was determined as 4.89.

Another assay has as its target T7, DFNB31_1, Q9P202. Briefly: holdup assay. Set-up: key: below the threshold = too weak to quantify, mostly under pKd 3.1 to 4. The conditions noted are these: plain residues with an end cap or a label only (N-terminal biotin on a linker: ado-ado).
As to B1, the pKd entry is “below the threshold”.

Take B2: the negative-log Kd (pKd) was 3.63.

The next assay deals with GRIP2_3, Q9C0E4. Put plainly: holdup assay. As to conditions: plain residues with an end cap or a label only (N-terminal biotin on a linker: ado-ado). Set-up: key: below the threshold = too weak to quantify, mostly under pKd 3.1 to 4.
Sequence of GRIP2_3, Q9C0E4 (Q9C0E4 238-339): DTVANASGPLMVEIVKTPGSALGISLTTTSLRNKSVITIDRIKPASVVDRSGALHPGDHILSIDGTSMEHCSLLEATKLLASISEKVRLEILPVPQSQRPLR
As for B1, the pKd entry is recorded as “below the threshold”.

For the molecule B2, the pKd entry is on record as “below the threshold”.

For another assay, the target named is T8, SIPA1L2, Q9P2F8. Briefly: holdup assay. Also on record: key: below the threshold = too weak to quantify, mostly under pKd 3.1 to 4. As to conditions: plain residues with an end cap or a label only (N-terminal biotin on a linker: ado-ado).
With B1, the negative logarithm of the Kd (pKd) result is “below the threshold”.

As to B2, the pKd result is recorded as “below the threshold”.

The target in a further assay is T9, PARD3B_1, Q8TEW8. Put plainly: holdup assay. Also on record: key: below the threshold = too weak to quantify, mostly under pKd 3.1 to 4. The conditions noted are these: plain residues with an end cap or a label only (N-terminal biotin on a linker: ado-ado).
For the molecule B1, the pKd result was “below the threshold”.

B2 showed a negative-log Kd (pKd) of 4.84.

For the next assay, the target named is T10, DFNB31_3, Q9P202. Briefly: holdup assay. As to conditions: plain residues with an end cap or a label only (N-terminal biotin on a linker: ado-ado). Set-up: key: below the threshold = too weak to quantify, mostly under pKd 3.1 to 4.
For B1, the negative logarithm of the Kd (pKd) was found to be 3.94.

The molecule B2 had a pKd of 4.89.

For another assay, the target named is T11, SNTA1, Q13424. Put plainly: holdup assay. The conditions noted are these: plain residues with an end cap or a label only (N-terminal biotin on a linker: ado-ado). Also on record: key: below the threshold = too weak to quantify, mostly under pKd 3.1 to 4.
B1: the pKd result was “below the threshold”.

Consider B2, for which the pKd turned out to be 4.42.

The target of another assay is T12, ARHGAP21, Q5T5U3. Put plainly: holdup assay. Set-up: key: below the threshold = too weak to quantify, mostly under pKd 3.1 to 4. As to conditions: plain residues with an end cap or a label only (N-terminal biotin on a linker: ado-ado).
With B1, the pKd stood at 3.77.

Molecule B2 came in with a pKd of 3.67.

For another assay, the target named is TJP1_2, Q07157. Briefly: holdup assay. Also on record: key: below the threshold = too weak to quantify, mostly under pKd 3.1 to 4. As to conditions: plain residues with an end cap or a label only (N-terminal biotin on a linker: ado-ado).
Sequence of TJP1_2, Q07157 (Q07157 181-274): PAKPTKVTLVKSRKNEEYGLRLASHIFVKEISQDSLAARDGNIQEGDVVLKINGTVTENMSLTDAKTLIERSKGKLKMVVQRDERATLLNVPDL
In the case of B1, the pKd result is given as “below the threshold”.

For the molecule B2, the pKd result is “below the threshold”.

In another assay the target is T13, TJP3_3, O95049. Put plainly: holdup assay. Also on record: key: below the threshold = too weak to quantify, mostly under pKd 3.1 to 4. The conditions noted are these: plain residues with an end cap or a label only (N-terminal biotin on a linker: ado-ado).
B1: the pKd entry is “below the threshold”.

Turning to B2, the negative logarithm of the Kd (pKd) result is “below the threshold”.

Another assay concerns the target LIMK2, P53671. Briefly: holdup assay. Also on record: key: below the threshold = too weak to quantify, mostly under pKd 3.1 to 4. As to conditions: plain residues with an end cap or a label only (N-terminal biotin on a linker: ado-ado).
Take B1: the negative logarithm of the Kd (pKd) entry is “below the threshold”.

Consider B2, for which the pKd entry is given as “below the threshold”.
